This passage reports self-cleavage results from the RNAGym collection of RNA variant scans (doi:10.7554/elife.80360).

B1: Hairpin Ribozyme (parent)
chain: GUCCUCUUUCACGUGCGCGUGAAAGAGAGAAGUGAACCAGAGAAACACACGUUGUGGUAUAUUACCUGGUA

The variants in this series derive from B1. Nature of the series: self-cleavage, relative activity (ratio to wild type); higher = more cleavage; co-transcriptional.
For the variant A23G A39G, the self-cleavage turned out to be 0.353.

On to U5G G25A, for which the self-cleavage is 0.225.

For C50A G68U, the self-cleavage was 0.15.

Consider C66U G68A, for which the self-cleavage was 0.0865.

G25A A71G: the self-cleavage is 0.66.

Regarding C65G U70C, the self-cleavage was found to be 0.189.

Turning to G19U A35C, the self-cleavage came out at 0.809.

As to A44C U70G, the self-cleavage was 0.

As for C12U A30C, the self-cleavage worked out at 0.193.

As to G25A G42C, the self-cleavage amounted to 0.182.

Consider G51U U62G, for which the self-cleavage was 0.129.

Take U7A A64C: the self-cleavage amounted to 0.194.

As for A23C G34U, the self-cleavage came out at 1.14.

U33C C48U: the self-cleavage is 0.118.

Consider C50G A61C, for which the self-cleavage stood at 0.0643.

As for G1A G25A, the self-cleavage turned out to be 0.245.

Turning to G34A C50U, the self-cleavage turned out to be 0.653.

Regarding G19C G69U, the self-cleavage was determined as 0.212.

Take C37G G42A: the self-cleavage amounted to 0.117.

As to U2C A44G, the self-cleavage was found to be 0.275.

For the variant U8C C12U, the self-cleavage came to 0.566.

On to U7G A61G, for which the self-cleavage is 0.0998.

For the variant U33A C48U, the self-cleavage was 0.0718.

A11G C38U: the self-cleavage was 0.432.

As to U53A U60G, the self-cleavage stood at 0.684.

Regarding G27C A64U, the self-cleavage turned out to be 0.184.

G13C U70A: the self-cleavage worked out at 0.475.

Consider G21C C48U, for which the self-cleavage amounted to 0.098.

Consider C3A G15C, for which the self-cleavage worked out at 0.65.

Take U2G A71G: the self-cleavage is 0.307.

In the case of C6G G25A, the self-cleavage was determined as 0.523.

U14G C37A: the self-cleavage amounted to 0.276.

With G13C G29U, the self-cleavage came out at 0.0913.

Take A49C U52C: the self-cleavage was determined as 0.16.

For G21C A41U, the self-cleavage amounted to 1.16.

As to G32A A59U, the self-cleavage came to 0.167.

For G19C C48U, the self-cleavage amounted to 0.132.

Consider C4A G51C, for which the self-cleavage came out at 0.261.

As to C6A U33C, the self-cleavage stood at 0.0869.

For the variant A71C, the self-cleavage worked out at 1.42.

As for G19A U20A, the self-cleavage came to 0.762.

Consider A31C U33G, for which the self-cleavage was found to be 0.0823.

With G1A U14G, the self-cleavage was 0.195.

As to U33A C46A, the self-cleavage worked out at 0.122.

Take U53C G54A: the self-cleavage amounted to 0.418.

For the variant A23C A26C, the self-cleavage came to 0.507.

Take C6U A11U: the self-cleavage was 0.578.

For A11C A44C, the self-cleavage came to 0.0983.

As to G15A G68U, the self-cleavage stood at 0.232.

As to A30G C65A, the self-cleavage came to 0.148.

Regarding U33C C66U, the self-cleavage is 0.149.

In the case of A44U G54A, the self-cleavage was 0.181.

Regarding A22G A49U, the self-cleavage was 0.126.

For U20G G57A, the self-cleavage amounted to 0.195.

For the variant A39U A47U, the self-cleavage worked out at 0.164.

Regarding A35U U60G, the self-cleavage was 0.343.

Regarding U8G G54A, the self-cleavage was 0.456.

Turning to A44C A71C, the self-cleavage was 0.323.

For the variant U33C A49G, the self-cleavage was 0.123.

As for G17C U33A, the self-cleavage is 0.149.

As for C4A C46A, the self-cleavage is 0.146.

With A31U A41C, the self-cleavage was found to be 0.154.

As for A28C U53A, the self-cleavage was determined as 0.39.

As for A11U A71G, the self-cleavage turned out to be 0.977.

Turning to A41C A71U, the self-cleavage was 1.18.

U2A C6A: the self-cleavage worked out at 0.238.

On to C12U G56U, for which the self-cleavage worked out at 0.193.

Consider A30C A49C, for which the self-cleavage was 0.0983.

For the variant U2A C16G, the self-cleavage turned out to be 0.156.

Consider A36U G54U, for which the self-cleavage was 0.325.

On to G15A G69A, for which the self-cleavage was 0.362.

As for C10G G40C, the self-cleavage was found to be 0.122.

In the case of G17C A45C, the self-cleavage came out at 0.0898.

With C37G U58A, the self-cleavage worked out at 0.202.

As to G32A A49C, the self-cleavage was found to be 0.0198.

In the case of U7G U60C, the self-cleavage came to 1.12.

U2A A41C: the self-cleavage was 0.379.

For U7G U70G, the self-cleavage turned out to be 0.917.

On to A28G A59G, for which the self-cleavage was 0.181.

For C6G U62C, the self-cleavage was 0.116.

Regarding U63C G69C, the self-cleavage was 0.28.

A26U U52C: the self-cleavage is 0.656.

As for U8G C65G, the self-cleavage was 0.275.

With U7C G32A, the self-cleavage was 0.0904.

Consider A35C G57A, for which the self-cleavage is 0.0715.

Turning to U7G U33A, the self-cleavage was determined as 0.131.

Regarding G25C A30G, the self-cleavage was 0.157.

For the variant C4U C12U, the self-cleavage turned out to be 0.357.

As to U20C G56C, the self-cleavage came to 0.216.

Regarding A28U G69U, the self-cleavage came out at 0.0991.

As for U14A U60C, the self-cleavage turned out to be 1.07.

For A41U A49C, the self-cleavage amounted to 0.238.

For the variant A31G G40C, the self-cleavage was 0.247.

For A30C C46G, the self-cleavage is 0.0771.

As for C6G A23G, the self-cleavage turned out to be 0.446.

Take C38A A41U: the self-cleavage came out at 0.286.

Regarding C38U G42U, the self-cleavage came to 0.2.

Regarding U7C A23C, the self-cleavage amounted to 0.455.

As for U60G G69C, the self-cleavage was found to be 0.317.

As for G25A A45G, the self-cleavage turned out to be 0.24.

Turning to C50A C66G, the self-cleavage was determined as 0.217.

For G27A U63A, the self-cleavage was found to be 0.103.

Take U5C G17U: the self-cleavage was 0.794.

With C16A A36U, the self-cleavage worked out at 0.554.

In the case of C4A G13C, the self-cleavage was 0.223.

Take G1C A24U: the self-cleavage stood at 0.19.

In the case of A35U U53A, the self-cleavage came to 0.785.

Consider A39U U52A, for which the self-cleavage is 0.406.

As for U9A C16U, the self-cleavage stood at 0.624.

With G13A A41U, the self-cleavage worked out at 0.964.

On to C3A U58A, for which the self-cleavage was 0.637.

C3A U58C: the self-cleavage came out at 0.811.

As to A26G U62C, the self-cleavage was 0.277.

For the variant C6G G54C, the self-cleavage worked out at 0.265.

As to A24C A31G, the self-cleavage was determined as 0.66.

Take U7A C16G: the self-cleavage is 0.779.

G54U G56U: the self-cleavage came to 0.203.

Turning to G13U C48G, the self-cleavage amounted to 0.106.

U20C G54C: the self-cleavage amounted to 0.373.

On to G1C A49U, for which the self-cleavage turned out to be 0.252.

Consider G1C C38G, for which the self-cleavage was 0.112.

Take C10A U55G: the self-cleavage was 0.303.

On to U9G G40U, for which the self-cleavage amounted to 0.086.

In the case of U9C A23U, the self-cleavage is 0.528.

In the case of C10A G57A, the self-cleavage was 0.162.

On to A31U G51C, for which the self-cleavage stood at 0.15.

With A23C G51A, the self-cleavage worked out at 0.83.

U9G C50A: the self-cleavage is 0.24.

In the case of U7C G19A, the self-cleavage is 0.559.

On to C4A A22U, for which the self-cleavage is 0.22.

On to A24U G34U, for which the self-cleavage worked out at 1.22.

As for A23G U52A, the self-cleavage is 0.899.

With A26U U62C, the self-cleavage came out at 0.192.

Regarding G40A C48U, the self-cleavage came out at 0.136.

Turning to U14A A39G, the self-cleavage was 0.345.

Regarding A11G U55C, the self-cleavage worked out at 0.105.

For the variant C4G G21A, the self-cleavage was determined as 0.0893.

C6U G40A: the self-cleavage stood at 0.344.

In the case of A43C U52C, the self-cleavage stood at 0.109.

As to A11C A26G, the self-cleavage came to 0.645.

Turning to G32U U33G, the self-cleavage was 0.0653.

As to G19C G56U, the self-cleavage was found to be 0.0712.

Turning to C4A U14C, the self-cleavage was 0.115.

With G51C A71U, the self-cleavage was 0.722.

For the variant U5G A43U, the self-cleavage stood at 0.155.

Consider G21C G32C, for which the self-cleavage was 0.175.

For G19C G34A, the self-cleavage came to 1.08.

Take C6G A35U: the self-cleavage was 0.464.

As for G15C A28G, the self-cleavage was found to be 1.29.

On to U7A A59C, for which the self-cleavage was 0.136.

In the case of U9A A61C, the self-cleavage worked out at 0.144.

On to G34C A35C, for which the self-cleavage is 1.25.

With G19A A44C, the self-cleavage stood at 0.0966.

With A36U C37A, the self-cleavage stood at 0.184.

As for U60C U62C, the self-cleavage was found to be 0.569.

For the variant A24G A71G, the self-cleavage was found to be 1.07.

Take C12A A45C: the self-cleavage was found to be 0.137.

For A31G C38U, the self-cleavage was 0.272.

With A23C A31G, the self-cleavage is 0.696.

In the case of C10U A43C, the self-cleavage turned out to be 0.189.

Regarding U5G A24G, the self-cleavage came out at 0.331.

On to C12U U52G, for which the self-cleavage was 0.875.

Turning to A36C G40A, the self-cleavage is 0.162.

For the variant A39C U63C, the self-cleavage was 0.122.

As for C10U U60C, the self-cleavage is 0.992.

In the case of A39U G54U, the self-cleavage turned out to be 0.163.

Turning to U8C U14A, the self-cleavage turned out to be 0.51.
